A short description of the data set: protein stability index of a GFP-peptide fusion (GPS, HEK-293T) (PSI 1-6); higher = more stable. The following applies: c terminus: a fixed tail appended.

From the supplement of paper PMC10567573 come the findings set out here.

± gives the standard deviation.
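Also: 24-mer peptide tiles fused after GFP, lentivirally expressed, FACS-sorted into six equal bins by GFP/DsRed ratio, decoded by Illumina sequencing, PSI is the read-weighted mean bin number.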

Regarding APSLEAPKPSGLEPGPAAYGLKPL [KCTD13], the protein stability index reads like this: (treatment: DMSO) 4.45 ± 0.25; (treatment: MLN4924 1 uM, 8 h) 4.58 ± 0.1.

With DGQYMGVAFRGLKGKKLYPVVSAV [SPSB1], the protein stability index reads like this: (treatment: DMSO) 2.36 ± 0.55; (treatment: MLN4924 1 uM, 8 h) 2.12 ± 0.48.

In the case of PQQTWASPAEVVDLTLDEDSRRKY [C18orf25], the protein stability index is, setting by setting: (treatment: DMSO) 5.1 ± 0.3; (treatment: MLN4924 1 uM, 8 h) 5.13 ± 0.14.

LKKYLEPRCPRMVLSLKEGAREED [FBXO3]: the protein stability index was 4.56 ± 0.34 (treatment: DMSO) and 4.19 ± 0.41 (treatment: MLN4924 1 uM, 8 h).

As to NTNLHTHQRTHTGEKPFTCHECGK [ZNF75A], the protein stability index by setting is: (treatment: DMSO) 4.51 ± 0.14; (treatment: MLN4924 1 uM, 8 h) 4.54 ± 0.18.

As for ASHLGNELEGTEELCCVAELDNPM [C2CD2L], the protein stability index is, setting by setting: (treatment: DMSO) 5.2 ± 0.23; (treatment: MLN4924 1 uM, 8 h) 5.25 ± 0.18.

As to QGGGNGQQQQAMSFAILRIIRLVR [KCNA4], the protein stability index is, setting by setting: (treatment: DMSO) 2.46 ± 0.28; (treatment: MLN4924 1 uM, 8 h) 2.67 ± 0.24.

Consider TITTAAATSVTVPGAGVPSGSGGT [ZBTB22], for which the protein stability index is 4.9 ± 0.19 (treatment: DMSO) and 4.85 ± 0.26 (treatment: MLN4924 1 uM, 8 h).

On to EALAKQVASEMRFVQDLVRALEQE [DAPK3], for which the protein stability index reads like this: (treatment: DMSO) 2.95 ± 0.25; (treatment: MLN4924 1 uM, 8 h) 3.09 ± 0.54.

For KGSLPQPPITEVESQVFSEKLATD [ZNF232], the protein stability index is, setting by setting: (treatment: DMSO) 5.44 ± 0.17; (treatment: MLN4924 1 uM, 8 h) 5.24 ± 0.24.

Take KEVVKKHSQFIGYPITLYLEKERE [HSP90AB1]: the protein stability index (treatment: MLN4924 1 uM, 8 h) was determined as 3.32 ± 0.24.

For SNFPRQYFALRKILKQLIADVTLD [TRIM39], the protein stability index runs as follows: (treatment: DMSO) 2.54 ± 0.58; (treatment: MLN4924 1 uM, 8 h) 2.19 ± 0.53.

HTGEKPYTCHECGDSFSHSSNRIR [ZNF263] gave a protein stability index (treatment: DMSO) of 2.67 ± 0.2 and a protein stability index (treatment: MLN4924 1 uM, 8 h) of 3.4 ± 0.48.

Regarding SEDEEEYESGYAFLPDLLIFQMVI [SMG5], the protein stability index stood at 2.76 ± 0.62 (treatment: DMSO) and 2.59 ± 0.53 (treatment: MLN4924 1 uM, 8 h).

On to WGDCSRTCGGGVQFSSRDCTRPVP [ADAMTS4], for which the protein stability index stood at 2.9 ± 0.95 (treatment: DMSO) and 2.94 ± 0.26 (treatment: MLN4924 1 uM, 8 h).

For SYLREQMLNEPLVREIVKECSNIP [GAN], the protein stability index worked out at 3.21 ± 0.19 (treatment: DMSO) and 3.39 ± 0.45 (treatment: MLN4924 1 uM, 8 h).

For the sequence AVFRFWAGGEKGPQAFPMSRLWDS [DNAAF3], the protein stability index reads like this: (treatment: DMSO) 2.14 ± 0.26; (treatment: MLN4924 1 uM, 8 h) 2.18 ± 0.22.

Consider WQAKREEEEEEEEEAEAGEEAVPE [CHGA], for which the protein stability index is 5.6 ± 0.47 (treatment: DMSO) and 5.7 ± 0.22 (treatment: MLN4924 1 uM, 8 h).

As to FLMLAVSLTVPLLGAMMLLESPID [APMAP], the protein stability index runs as follows: (treatment: DMSO) 3.52 ± 0.26; (treatment: MLN4924 1 uM, 8 h) 3.64 ± 0.37.

For the sequence DLDAKIREALVLRSVRVRLLLSFW [PLD5], the protein stability index is 3.52 ± 0.33 (treatment: DMSO) and 2.53 ± 0.86 (treatment: MLN4924 1 uM, 8 h).

For the sequence EELEDSKALLYLPIAPEVEDPEEN [RBBP5], the protein stability index runs as follows: (treatment: DMSO) 5.5 ± 0.6; (treatment: MLN4924 1 uM, 8 h) 5.24 ± 0.42.

For MRLNSTGEVPVLIHGENIICEATQ [GDAP1], the protein stability index is 3.69 ± 0.17 (treatment: DMSO) and 3.8 ± 0.45 (treatment: MLN4924 1 uM, 8 h).

With TALALEPDAIRSRSNTLRERSQVR [PCDHGC5], the protein stability index is, setting by setting: (treatment: DMSO) 4.64 ± 0.14; (treatment: MLN4924 1 uM, 8 h) 4.69 ± 0.18.

As for SLGKQKVFIIRKSLLDELMEVQHF [SOAT2], the protein stability index came to 2.58 ± 0.52 (treatment: DMSO) and 2.56 ± 0.73 (treatment: MLN4924 1 uM, 8 h).

Consider EDENDLEELNNGEPQTEHQQESES [MIA2], for which the protein stability index was found to be 5.57 ± 0.21 (treatment: DMSO) and 5.74 ± 0.12 (treatment: MLN4924 1 uM, 8 h).

Turning to QAKEELARMLREYQELMSLKLALD [KRT71], the protein stability index is, setting by setting: (treatment: DMSO) 2.61 ± 0.37; (treatment: MLN4924 1 uM, 8 h) 2.77 ± 0.47.

PRKVSTCTDHELENHSMYCVQCKM [TRIM9] yielded a protein stability index (treatment: DMSO) of 4.53 ± 0.27 and a protein stability index (treatment: MLN4924 1 uM, 8 h) of 4.74 ± 0.33.

Sequence VKGMQRIVNQWSEKFSDEGDSDSA [DLC1] yielded a protein stability index (treatment: DMSO) of 4.68 ± 0.21 and a protein stability index (treatment: MLN4924 1 uM, 8 h) of 5.09 ± 0.29.

AQLQDFVRAKGSQSGRHLQTHSNT [STX5] came in with a protein stability index (treatment: DMSO) of 4.13 ± 0.08 and a protein stability index (treatment: MLN4924 1 uM, 8 h) of 4.24 ± 0.15.

The sequence QKQQAPRMDTPPPEERLEKQNEKL [CCDC89] gave a protein stability index (treatment: DMSO) of 5.46 ± 0.44 and a protein stability index (treatment: MLN4924 1 uM, 8 h) of 5.62 ± 0.2.

Take NQAGFTLHSAIYAARPDVKCVVHI [ADD1]: the protein stability index (treatment: DMSO) was 3.1 ± 0.42 and the protein stability index (treatment: MLN4924 1 uM, 8 h) was determined as 3.15 ± 0.62.

Take FDVFSPKQDLVPGSPDDSHPKDGP [DLC1]: the protein stability index is 5.43 ± 0.36 (treatment: DMSO) and 5.43 ± 0.33 (treatment: MLN4924 1 uM, 8 h).

As for VVLLFETALLSSGFSLEDPQTHSN [HSP90AB1], the protein stability index (treatment: MLN4924 1 uM, 8 h) was found to be 2.83 ± 0.84.

As for AFDKKVLKFDAYFQEDVPMSTEEQ [EFHC1], the protein stability index by setting is: (treatment: DMSO) 4.71 ± 0.17; (treatment: MLN4924 1 uM, 8 h) 4.73 ± 0.18.

Consider SSRVPVGGGPEATLSISDVRTLSE [ZBTB22], for which the protein stability index reads like this: (treatment: DMSO) 4.49 ± 0.11; (treatment: MLN4924 1 uM, 8 h) 4.57 ± 0.38.

Sequence HECGTKYPVEWAKFCCECGIRRMI [ZC2HC1A] yielded a protein stability index (treatment: DMSO) of 2.48 ± 0.3 and a protein stability index (treatment: MLN4924 1 uM, 8 h) of 2.71 ± 0.46.

In the case of EQEHAAIQDKLFQVAKREREAATK [CHCHD6], the protein stability index is 5.38 ± 0.36 (treatment: DMSO) and 5.48 ± 0.16 (treatment: MLN4924 1 uM, 8 h).
